Each block holds one binder with its values, some of them ahead of it.
Experiments:
[1] = target: systemic lupus erythematosus autoantigen SSA; assay: AtheNA Multi-Lyte ANA, Ab at 25 ug/ml
Sm (sphingomyelin) [2] = target: T1, Sm (sphingomyelin); assay: AtheNA Multi-Lyte ANA, Ab at 25 ug/ml
T1 construct: in an ANA panel of nuclear antigens Sm is usually the Smith ribonucleoprotein antigen; Kept, but see recheck

ribonucleoprotein (RNP) [3] = assay: AtheNA Multi-Lyte ANA, Ab at 25 ug/ml
[4] = target: T2, sclerosis autoantigen (Scl-70) (UniProt P11387 2-765, limits assumed); assay: AtheNA Multi-Lyte ANA, Ab at 25 ug/ml
T2 sequence (looked up): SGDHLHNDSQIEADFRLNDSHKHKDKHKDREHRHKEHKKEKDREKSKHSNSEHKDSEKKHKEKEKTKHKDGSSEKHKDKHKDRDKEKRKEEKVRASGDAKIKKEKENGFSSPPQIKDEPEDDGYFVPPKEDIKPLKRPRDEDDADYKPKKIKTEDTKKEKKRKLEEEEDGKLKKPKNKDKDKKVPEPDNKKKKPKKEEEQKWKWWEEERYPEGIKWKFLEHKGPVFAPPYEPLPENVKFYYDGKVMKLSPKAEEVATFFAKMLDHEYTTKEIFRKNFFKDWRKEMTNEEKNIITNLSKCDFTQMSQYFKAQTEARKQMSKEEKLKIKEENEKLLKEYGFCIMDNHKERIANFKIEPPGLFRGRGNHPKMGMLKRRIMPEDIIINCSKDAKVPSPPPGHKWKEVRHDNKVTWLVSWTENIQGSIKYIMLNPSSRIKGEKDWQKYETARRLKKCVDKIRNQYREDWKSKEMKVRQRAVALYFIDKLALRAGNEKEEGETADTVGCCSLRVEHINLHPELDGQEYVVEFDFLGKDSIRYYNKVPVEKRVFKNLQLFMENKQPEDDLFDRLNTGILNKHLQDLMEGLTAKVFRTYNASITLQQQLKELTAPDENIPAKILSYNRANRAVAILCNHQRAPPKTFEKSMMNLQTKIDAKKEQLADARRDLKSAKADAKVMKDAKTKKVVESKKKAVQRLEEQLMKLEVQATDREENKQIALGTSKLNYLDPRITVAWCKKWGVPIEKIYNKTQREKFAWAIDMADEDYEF

[5] = target: T3, histidine-tRNA ligase (Jo-1) (UniProt P12081 2-509); assay: AtheNA Multi-Lyte ANA, Ab at 25 ug/ml
T3 sequence (looked up): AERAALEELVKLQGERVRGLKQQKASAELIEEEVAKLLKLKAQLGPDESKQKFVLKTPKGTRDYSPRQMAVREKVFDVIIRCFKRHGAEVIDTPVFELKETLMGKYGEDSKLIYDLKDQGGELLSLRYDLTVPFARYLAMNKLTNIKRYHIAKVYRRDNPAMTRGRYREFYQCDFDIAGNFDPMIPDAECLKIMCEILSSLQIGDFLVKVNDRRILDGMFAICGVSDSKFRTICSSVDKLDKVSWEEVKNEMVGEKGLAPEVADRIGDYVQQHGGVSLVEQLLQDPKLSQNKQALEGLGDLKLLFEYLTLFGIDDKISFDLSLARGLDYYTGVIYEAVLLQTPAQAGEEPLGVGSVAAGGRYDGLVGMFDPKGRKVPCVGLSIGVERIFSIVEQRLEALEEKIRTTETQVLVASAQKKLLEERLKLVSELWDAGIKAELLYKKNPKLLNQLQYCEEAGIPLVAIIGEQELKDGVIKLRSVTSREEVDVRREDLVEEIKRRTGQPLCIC

[6] = target: systemic lupus erythematosus autoantigen SSA; assay: AtheNA Multi-Lyte ANA, Ab at 50 ug/ml;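 further: monoclonal antibodies probed against a nuclear autoantigen panel (SSA, SSB, Sm, RNP, Scl-70, Jo-1, dsDNA, CentB, histones), with anti-HIV 4E10 and palivizumab as control antibodies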
Sm (sphingomyelin) [7] = target: T1, Sm (sphingomyelin); assay: AtheNA Multi-Lyte ANA, Ab at 50 ug/ml;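 further: monoclonal antibodies probed against a nuclear autoantigen panel (SSA, SSB, Sm, RNP, Scl-70, Jo-1, dsDNA, CentB, histones), with anti-HIV 4E10 and palivizumab as control antibodies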
ribonucleoprotein (RNP) [8] = assay: AtheNA Multi-Lyte ANA, Ab at 50 ug/ml;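 further: monoclonal antibodies probed against a nuclear autoantigen panel (SSA, SSB, Sm, RNP, Scl-70, Jo-1, dsDNA, CentB, histones), with anti-HIV 4E10 and palivizumab as control antibodies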
[9] = target: T2, sclerosis autoantigen (Scl-70); assay: AtheNA Multi-Lyte ANA, Ab at 50 ug/ml;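 further: monoclonal antibodies probed against a nuclear autoantigen panel (SSA, SSB, Sm, RNP, Scl-70, Jo-1, dsDNA, CentB, histones), with anti-HIV 4E10 and palivizumab as control antibodies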
[10] = target: T3, histidine-tRNA ligase (Jo-1); assay: AtheNA Multi-Lyte ANA, Ab at 50 ug/ml
[11] = target: systemic lupus erythematosus autoantigen SSA; assay: AtheNA Multi-Lyte ANA, Ab at 12.5 ug/ml;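 further: monoclonal antibodies screened for binding to a panel of nuclear autoantigens (SSA, SSB, Sm, RNP, Scl-70, Jo-1, dsDNA, CentB, histones), with anti-HIV and anti-RSV antibodies as controls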
Sm (sphingomyelin) [12] = target: T1, Sm (sphingomyelin); assay: AtheNA Multi-Lyte ANA, Ab at 12.5 ug/ml;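 further: monoclonal antibodies screened for binding to a panel of nuclear autoantigens (SSA, SSB, Sm, RNP, Scl-70, Jo-1, dsDNA, CentB, histones), with anti-HIV and anti-RSV antibodies as controls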
ribonucleoprotein (RNP) [13] = assay: AtheNA Multi-Lyte ANA, Ab at 12.5 ug/ml;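 further: monoclonal antibodies screened for binding to a panel of nuclear autoantigens (SSA, SSB, Sm, RNP, Scl-70, Jo-1, dsDNA, CentB, histones), with anti-HIV and anti-RSV antibodies as controls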
[14] = target: T2, sclerosis autoantigen (Scl-70); assay: AtheNA Multi-Lyte ANA, Ab at 12.5 ug/ml;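 further: monoclonal antibodies screened for binding to a panel of nuclear autoantigens (SSA, SSB, Sm, RNP, Scl-70, Jo-1, dsDNA, CentB, histones), with anti-HIV and anti-RSV antibodies as controls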
[15] = target: T3, histidine-tRNA ligase (Jo-1); assay: AtheNA Multi-Lyte ANA, Ab at 12.5 ug/ml
[16] = target: systemic lupus erythematosus autoantigen SSA; assay: AtheNA Multi-Lyte ANA, Ab at 6.25 ug/ml;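 further: monoclonal antibodies screened for reactivity against a panel of nuclear autoantigens, with an anti-HIV and an anti-RSV monoclonal antibody serving as controls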
Sm (sphingomyelin) [17] = target: T1, Sm (sphingomyelin); assay: AtheNA Multi-Lyte ANA, Ab at 6.25 ug/ml;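 further: monoclonal antibodies screened for reactivity against a panel of nuclear autoantigens, with an anti-HIV and an anti-RSV monoclonal antibody serving as controls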
ribonucleoprotein (RNP) [18] = assay: AtheNA Multi-Lyte ANA, Ab at 6.25 ug/ml;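 further: monoclonal antibodies screened for reactivity against a panel of nuclear autoantigens, with an anti-HIV and an anti-RSV monoclonal antibody serving as controls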
[19] = target: T2, sclerosis autoantigen (Scl-70); assay: AtheNA Multi-Lyte ANA, Ab at 6.25 ug/ml;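 further: monoclonal antibodies screened for reactivity against a panel of nuclear autoantigens, with an anti-HIV and an anti-RSV monoclonal antibody serving as controls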
[20] = target: T3, histidine-tRNA ligase (Jo-1); assay: AtheNA Multi-Lyte ANA, Ab at 6.25 ug/ml
[21] = target: T4, 15-mer peptide GPPPPIDNGDITSFP (SEQ ID NO: 114) (human); assay: assay and antigen not given; Example 10, epitope mapping on the 15-mer peptide
T4 construct: Immobilized for SPR; also called parent peptide
T4 peptide: GPPPPIDNGDITSFP

AtheNA signal [1]: 8
AtheNA signal (Sm (sphingomyelin) [2]): 5
AtheNA signal (ribonucleoprotein (RNP) [3]): 8
AtheNA signal [4]: 3
AtheNA signal [5]: 3
AtheNA signal [6]: 7
AtheNA signal (Sm (sphingomyelin) [7]): 7
AtheNA signal (ribonucleoprotein (RNP) [8]): 10
AtheNA signal [9]: 4
AtheNA signal [10]: 7
AtheNA signal [11]: 4
AtheNA signal (Sm (sphingomyelin) [12]): 7
AtheNA signal (ribonucleoprotein (RNP) [13]): 7
AtheNA signal [14]: 3
AtheNA signal [15]: 2
AtheNA signal [16]: 4
AtheNA signal (Sm (sphingomyelin) [17]): 4
AtheNA signal (ribonucleoprotein (RNP) [18]): 7
AtheNA signal [19]: 3
AtheNA signal [20]: 4
EC50 [21]: 7.98 ng/mL
B1: Ab7968 (antibody, IgG1, V domains shown)
VH: LVESGGGVVQPGRSLRLSCAASGFTFSRYGMHWVRQAPGKGLEWVAVMSYDGSTKYYADSVKGRFAISRDNPKNTLFLQMNSLRPDDTAVYYCAKGGAAAAVMDVWGKGTTVTVSS
VL: MTQSPDSLTVSLGERATISCKSSQRLLYSSNNKNYLAWYQQKPGQPPKLLMYWASTRESGVPDRFSGSGSGTDFSLTISSLQAEDVAVYYCQQYYNPPWTFGQGTKVEVK
notes: Recombinant human antibody with IgG1 heavy chain backbone and kappa light chain constant; they begin at LVESGGG and MTQSP; also called mAb 7968; mAb7968

AtheNA signal [6]: 2
AtheNA signal (Sm (sphingomyelin) [7]): 4
AtheNA signal (ribonucleoprotein (RNP) [8]): 5
AtheNA signal [9]: 2
AtheNA signal [10]: 4
AtheNA signal [11]: 2
AtheNA signal (Sm (sphingomyelin) [12]): 3
AtheNA signal (ribonucleoprotein (RNP) [13]): 3
AtheNA signal [14]: 2
AtheNA signal [15]: 5
AtheNA signal [16]: 2
AtheNA signal (Sm (sphingomyelin) [17]): 4
AtheNA signal (ribonucleoprotein (RNP) [18]): 2
AtheNA signal [19]: 1
AtheNA signal [20]: 4
B2: Ab7962/293i (antibody, V domains shown)
VH: LVESGGGLVQPGGSLRLSCAASGFTFSSYEMNWVRQAPGKGLEWVSYISSSGSTIYYADSVKGRFTISRDNAKNSLYLQMNSLRAEDTAVYYCARVEQLAPSPYMDVWGKGTTVTVSS
VL: MTQSLDSLTVSLGERATINCKSSQSLLYTSNNKNYLAWYQQKSGQPPKLLIYWASIRDSGVPDRFSGSGSATDFTLTINNLQAEDVAVYFCQQYYKTPLTFGGGTKVEVR
notes: Recombinant human antibody with IgG1 heavy chain backbone and kappa light chain constant (IgM in the donor B cell); they begin at LVESGGG and MTQSL; also called clone 27; pH007962/pK005996

AtheNA signal [1]: 11
AtheNA signal (Sm (sphingomyelin) [2]): 3
AtheNA signal (ribonucleoprotein (RNP) [3]): 4
AtheNA signal [4]: 2
AtheNA signal [5]: 4
AtheNA signal [6]: 11
AtheNA signal (Sm (sphingomyelin) [7]): 4
AtheNA signal (ribonucleoprotein (RNP) [8]): 6
AtheNA signal [9]: 2
AtheNA signal [10]: 5
AtheNA signal [11]: 9
AtheNA signal (Sm (sphingomyelin) [12]): 1
AtheNA signal (ribonucleoprotein (RNP) [13]): 3
AtheNA signal [14]: 2
AtheNA signal [15]: 3
AtheNA signal [16]: 9
AtheNA signal (Sm (sphingomyelin) [17]): 3
AtheNA signal (ribonucleoprotein (RNP) [18]): 3
AtheNA signal [19]: 2
AtheNA signal [20]: 3
EC50 [21]: 9.08 ng/mL
B3: Ab7957/293i (antibody, IgG1, V domains shown)
VH: LVESGGGVVPPGKSLRLSCAASGFTFSLYGIHWVRQAPGKGLEWVAVISYDGNTKYYTDSVKGRFTISRDNAKNTIYLQMNSLRLDDTAVYYCAKGAANSATFDFWGRGTMVTVSS
VL: MTQSPDSLTLSLGERATINCRSSRTVLYRSNNKNYLAWYQHKPGQPPKLLMSWASTRETGVPDRFSGSGSGTHFTLTITSLQPEDVAVYYCQQYYSPPWTFGQGTKVEIR
notes: Recombinant human antibody with IgG1 heavy chain backbone and kappa light chain constant; they begin at LVESGGG and MTQSP; also called Ab7957i; mAb 7957

Source: patent US20190315842A1 (DUKE UNIVERSITY, published 2019)
